# Experimental data reported in paper doi:10.1101/2020.12.10.418392.
# Target: T1, RLP42-GFP (A. thaliana) (UniProt Q9LJS0)
# T1 sequence: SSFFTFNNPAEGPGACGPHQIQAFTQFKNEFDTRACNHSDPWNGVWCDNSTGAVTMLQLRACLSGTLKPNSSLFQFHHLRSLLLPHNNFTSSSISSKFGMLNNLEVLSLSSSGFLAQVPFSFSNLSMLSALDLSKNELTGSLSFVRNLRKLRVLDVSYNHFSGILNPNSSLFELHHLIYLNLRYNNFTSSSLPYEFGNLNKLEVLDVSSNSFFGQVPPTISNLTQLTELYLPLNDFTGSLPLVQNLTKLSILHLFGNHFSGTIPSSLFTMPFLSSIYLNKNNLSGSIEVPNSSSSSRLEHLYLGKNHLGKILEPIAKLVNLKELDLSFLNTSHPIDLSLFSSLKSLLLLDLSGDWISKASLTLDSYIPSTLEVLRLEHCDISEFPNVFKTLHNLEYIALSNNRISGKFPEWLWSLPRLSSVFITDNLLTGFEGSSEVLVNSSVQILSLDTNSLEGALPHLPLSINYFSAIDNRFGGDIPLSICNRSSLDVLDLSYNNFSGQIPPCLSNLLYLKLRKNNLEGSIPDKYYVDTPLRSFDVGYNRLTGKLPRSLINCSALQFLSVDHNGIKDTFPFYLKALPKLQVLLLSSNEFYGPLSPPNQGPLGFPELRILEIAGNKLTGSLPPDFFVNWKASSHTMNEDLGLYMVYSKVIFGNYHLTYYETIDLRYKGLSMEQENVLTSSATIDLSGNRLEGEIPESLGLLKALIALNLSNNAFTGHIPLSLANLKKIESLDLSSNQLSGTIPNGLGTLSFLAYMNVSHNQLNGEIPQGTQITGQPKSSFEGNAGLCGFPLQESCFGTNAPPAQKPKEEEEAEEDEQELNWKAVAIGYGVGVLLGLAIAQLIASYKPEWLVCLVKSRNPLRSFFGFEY
binder,measurement,value
AKNTDGFDL [Oom-pg9],EC50 of ethylene production in A. thaliana Col-0 leaves,1300 nM
